# Measurements published in publication PMC11832219 (Molecular cell, 2024).
# T1: MED17 (human (endogenous in 293-F), UniProt Q9NVC6 1-651)
# T1 sequence (looked up): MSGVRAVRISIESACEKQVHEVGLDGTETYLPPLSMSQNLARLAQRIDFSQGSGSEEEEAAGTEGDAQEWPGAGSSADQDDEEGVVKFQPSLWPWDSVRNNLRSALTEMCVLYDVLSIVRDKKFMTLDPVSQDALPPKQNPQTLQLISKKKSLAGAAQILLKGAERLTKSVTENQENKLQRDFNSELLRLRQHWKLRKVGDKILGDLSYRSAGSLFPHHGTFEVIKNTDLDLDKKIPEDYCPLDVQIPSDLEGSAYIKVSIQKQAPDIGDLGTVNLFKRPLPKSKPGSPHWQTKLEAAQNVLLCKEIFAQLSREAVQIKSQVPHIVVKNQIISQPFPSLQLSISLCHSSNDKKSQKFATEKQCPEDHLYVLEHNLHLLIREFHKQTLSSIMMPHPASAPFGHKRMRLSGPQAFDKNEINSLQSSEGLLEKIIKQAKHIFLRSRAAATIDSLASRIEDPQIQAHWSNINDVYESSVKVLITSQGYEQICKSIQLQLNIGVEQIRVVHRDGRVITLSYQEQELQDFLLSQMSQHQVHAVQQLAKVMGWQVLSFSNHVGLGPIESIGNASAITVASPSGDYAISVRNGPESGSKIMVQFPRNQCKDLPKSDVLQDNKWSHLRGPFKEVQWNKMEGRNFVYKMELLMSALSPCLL
# B1: Flag-tagged MED13 IDRc (residues 500–1069), expressed in 293-F cells (domain or fragment, human, UniProt Q9UHV7 500-1069, looked up)
# chain: SAPDSQVRFSNIRTNDVAKTPQMHGTEMANSPQPPPLSPHPCDVVDEGVTKTPSTPQSQHFYQMPTPDPLVPSKPMEDRIDSLSQSFPPQYQEAVEPTVYVGTAVNLEEDEANIAWKYYKFPKKKDVEFLPPQLPSDKFKDDPVGPFGQESVTSVTELMVQCKKPLKVSDELVQQYQIKNQCLSAIASDAEQEPKIDPYAFVEGDEEFLFPDKKDRQNSEREAGKKHKVEDGTSSVTVLSHEEDAMSLFSPSIKQDAPRPTSHARPPSTSLIYDSDLAVSYTDLDNLFNSDEDELTPGSKKSANGSDDKASCKESKTGNLDPLSCISTADLHKMYPTPPSLEQHIMGFSPMNMNNKEYGSMDTTPGGTVLEGNSSSIGAQFKIEVDEGFCSPKPSEIKDFSYVYKPENCQILVGCSMFAPLKTLPSQYLPPIKLPEECIYRQSWTVGKLELLSSGPSMPFIKEGDGSNMDQEYGTAYTPQTHTSFGMPPSSAPPSNSGAGILPSPSTPRFPTPRTPRTPRTPRGAGGPASAQGSVKYENSDLYSPASTPSTCRPLNSVEPATVPSIPEAH
# How the values were obtained:
# [1] = molecular target: B1; assay: cryo-EM structure
# MED17 = molecular target: T1, MED17; assay: cryo-EM structure
# MED14 = MED14 (human (endogenous in 293-F), UniProt O60244 1-1454); assay: cryo-EM structure
# MED13 [2] = molecular target: T2, MED13 (human (endogenous in 293-F), UniProt Q9UHV7 1-2174); assay: cross-linking
# T2 sequence (Q9UHV7 whole entry): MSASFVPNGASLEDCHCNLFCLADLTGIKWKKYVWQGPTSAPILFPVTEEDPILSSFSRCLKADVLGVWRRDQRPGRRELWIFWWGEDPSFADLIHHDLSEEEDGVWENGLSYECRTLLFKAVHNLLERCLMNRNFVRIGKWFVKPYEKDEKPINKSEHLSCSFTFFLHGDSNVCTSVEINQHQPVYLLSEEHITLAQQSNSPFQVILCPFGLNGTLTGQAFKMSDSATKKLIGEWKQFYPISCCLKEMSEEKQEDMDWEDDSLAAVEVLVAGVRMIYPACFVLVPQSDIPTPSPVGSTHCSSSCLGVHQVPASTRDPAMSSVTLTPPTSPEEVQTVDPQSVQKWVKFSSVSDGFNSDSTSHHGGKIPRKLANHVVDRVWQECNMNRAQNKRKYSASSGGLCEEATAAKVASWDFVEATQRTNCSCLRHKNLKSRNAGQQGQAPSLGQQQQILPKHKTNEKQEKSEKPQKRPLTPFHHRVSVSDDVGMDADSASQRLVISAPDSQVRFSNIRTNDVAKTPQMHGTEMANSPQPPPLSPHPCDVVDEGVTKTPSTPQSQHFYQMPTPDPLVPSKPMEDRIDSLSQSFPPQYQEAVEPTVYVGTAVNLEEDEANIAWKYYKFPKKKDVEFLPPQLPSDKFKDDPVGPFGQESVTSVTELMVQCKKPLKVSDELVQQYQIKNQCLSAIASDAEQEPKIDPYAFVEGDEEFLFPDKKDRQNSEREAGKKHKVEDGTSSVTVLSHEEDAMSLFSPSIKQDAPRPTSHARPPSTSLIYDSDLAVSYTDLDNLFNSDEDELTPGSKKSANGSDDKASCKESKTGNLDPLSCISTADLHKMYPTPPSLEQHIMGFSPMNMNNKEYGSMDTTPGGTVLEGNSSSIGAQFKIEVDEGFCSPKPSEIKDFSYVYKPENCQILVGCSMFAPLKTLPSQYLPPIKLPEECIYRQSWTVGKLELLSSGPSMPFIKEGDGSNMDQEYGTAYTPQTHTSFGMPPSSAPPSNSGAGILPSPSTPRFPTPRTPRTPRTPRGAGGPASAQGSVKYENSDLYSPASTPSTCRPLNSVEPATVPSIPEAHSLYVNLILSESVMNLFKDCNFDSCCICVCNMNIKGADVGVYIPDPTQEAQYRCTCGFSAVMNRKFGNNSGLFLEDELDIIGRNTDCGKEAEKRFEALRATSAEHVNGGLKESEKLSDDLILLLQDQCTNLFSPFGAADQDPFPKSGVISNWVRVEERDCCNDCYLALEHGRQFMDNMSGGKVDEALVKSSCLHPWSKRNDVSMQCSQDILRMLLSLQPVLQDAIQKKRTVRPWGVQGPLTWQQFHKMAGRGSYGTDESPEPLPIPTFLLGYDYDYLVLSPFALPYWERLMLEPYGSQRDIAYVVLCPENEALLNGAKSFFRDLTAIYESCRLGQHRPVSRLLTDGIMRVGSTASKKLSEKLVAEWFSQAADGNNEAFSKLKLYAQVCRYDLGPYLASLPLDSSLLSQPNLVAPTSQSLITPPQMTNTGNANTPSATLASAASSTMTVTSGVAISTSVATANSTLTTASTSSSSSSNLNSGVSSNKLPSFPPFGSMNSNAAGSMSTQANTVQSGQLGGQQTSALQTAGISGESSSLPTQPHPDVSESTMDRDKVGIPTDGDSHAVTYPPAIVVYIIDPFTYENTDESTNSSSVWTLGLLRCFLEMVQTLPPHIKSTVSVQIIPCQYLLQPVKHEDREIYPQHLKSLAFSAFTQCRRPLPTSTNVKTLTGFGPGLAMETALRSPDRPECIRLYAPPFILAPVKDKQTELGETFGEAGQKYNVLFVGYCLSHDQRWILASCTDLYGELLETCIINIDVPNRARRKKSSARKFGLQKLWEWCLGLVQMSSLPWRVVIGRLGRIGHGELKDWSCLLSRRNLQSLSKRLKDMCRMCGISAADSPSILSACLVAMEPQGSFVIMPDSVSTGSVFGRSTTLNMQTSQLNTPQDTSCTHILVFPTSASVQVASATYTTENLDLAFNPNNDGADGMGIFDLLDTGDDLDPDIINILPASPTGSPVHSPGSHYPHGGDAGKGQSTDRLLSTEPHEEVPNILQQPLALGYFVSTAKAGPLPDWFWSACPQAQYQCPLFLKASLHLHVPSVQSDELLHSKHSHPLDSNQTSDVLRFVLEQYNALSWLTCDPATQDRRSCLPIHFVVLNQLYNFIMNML
# MED12L = MED12L (human (endogenous in 293-F), UniProt Q86YW9 1-2145); assay: cross-linking
# MED12 = MED12 (human (endogenous in 293-F), UniProt Q93074 1-2177); assay: cross-linking
# Chain of MED12 (Q93074 whole entry): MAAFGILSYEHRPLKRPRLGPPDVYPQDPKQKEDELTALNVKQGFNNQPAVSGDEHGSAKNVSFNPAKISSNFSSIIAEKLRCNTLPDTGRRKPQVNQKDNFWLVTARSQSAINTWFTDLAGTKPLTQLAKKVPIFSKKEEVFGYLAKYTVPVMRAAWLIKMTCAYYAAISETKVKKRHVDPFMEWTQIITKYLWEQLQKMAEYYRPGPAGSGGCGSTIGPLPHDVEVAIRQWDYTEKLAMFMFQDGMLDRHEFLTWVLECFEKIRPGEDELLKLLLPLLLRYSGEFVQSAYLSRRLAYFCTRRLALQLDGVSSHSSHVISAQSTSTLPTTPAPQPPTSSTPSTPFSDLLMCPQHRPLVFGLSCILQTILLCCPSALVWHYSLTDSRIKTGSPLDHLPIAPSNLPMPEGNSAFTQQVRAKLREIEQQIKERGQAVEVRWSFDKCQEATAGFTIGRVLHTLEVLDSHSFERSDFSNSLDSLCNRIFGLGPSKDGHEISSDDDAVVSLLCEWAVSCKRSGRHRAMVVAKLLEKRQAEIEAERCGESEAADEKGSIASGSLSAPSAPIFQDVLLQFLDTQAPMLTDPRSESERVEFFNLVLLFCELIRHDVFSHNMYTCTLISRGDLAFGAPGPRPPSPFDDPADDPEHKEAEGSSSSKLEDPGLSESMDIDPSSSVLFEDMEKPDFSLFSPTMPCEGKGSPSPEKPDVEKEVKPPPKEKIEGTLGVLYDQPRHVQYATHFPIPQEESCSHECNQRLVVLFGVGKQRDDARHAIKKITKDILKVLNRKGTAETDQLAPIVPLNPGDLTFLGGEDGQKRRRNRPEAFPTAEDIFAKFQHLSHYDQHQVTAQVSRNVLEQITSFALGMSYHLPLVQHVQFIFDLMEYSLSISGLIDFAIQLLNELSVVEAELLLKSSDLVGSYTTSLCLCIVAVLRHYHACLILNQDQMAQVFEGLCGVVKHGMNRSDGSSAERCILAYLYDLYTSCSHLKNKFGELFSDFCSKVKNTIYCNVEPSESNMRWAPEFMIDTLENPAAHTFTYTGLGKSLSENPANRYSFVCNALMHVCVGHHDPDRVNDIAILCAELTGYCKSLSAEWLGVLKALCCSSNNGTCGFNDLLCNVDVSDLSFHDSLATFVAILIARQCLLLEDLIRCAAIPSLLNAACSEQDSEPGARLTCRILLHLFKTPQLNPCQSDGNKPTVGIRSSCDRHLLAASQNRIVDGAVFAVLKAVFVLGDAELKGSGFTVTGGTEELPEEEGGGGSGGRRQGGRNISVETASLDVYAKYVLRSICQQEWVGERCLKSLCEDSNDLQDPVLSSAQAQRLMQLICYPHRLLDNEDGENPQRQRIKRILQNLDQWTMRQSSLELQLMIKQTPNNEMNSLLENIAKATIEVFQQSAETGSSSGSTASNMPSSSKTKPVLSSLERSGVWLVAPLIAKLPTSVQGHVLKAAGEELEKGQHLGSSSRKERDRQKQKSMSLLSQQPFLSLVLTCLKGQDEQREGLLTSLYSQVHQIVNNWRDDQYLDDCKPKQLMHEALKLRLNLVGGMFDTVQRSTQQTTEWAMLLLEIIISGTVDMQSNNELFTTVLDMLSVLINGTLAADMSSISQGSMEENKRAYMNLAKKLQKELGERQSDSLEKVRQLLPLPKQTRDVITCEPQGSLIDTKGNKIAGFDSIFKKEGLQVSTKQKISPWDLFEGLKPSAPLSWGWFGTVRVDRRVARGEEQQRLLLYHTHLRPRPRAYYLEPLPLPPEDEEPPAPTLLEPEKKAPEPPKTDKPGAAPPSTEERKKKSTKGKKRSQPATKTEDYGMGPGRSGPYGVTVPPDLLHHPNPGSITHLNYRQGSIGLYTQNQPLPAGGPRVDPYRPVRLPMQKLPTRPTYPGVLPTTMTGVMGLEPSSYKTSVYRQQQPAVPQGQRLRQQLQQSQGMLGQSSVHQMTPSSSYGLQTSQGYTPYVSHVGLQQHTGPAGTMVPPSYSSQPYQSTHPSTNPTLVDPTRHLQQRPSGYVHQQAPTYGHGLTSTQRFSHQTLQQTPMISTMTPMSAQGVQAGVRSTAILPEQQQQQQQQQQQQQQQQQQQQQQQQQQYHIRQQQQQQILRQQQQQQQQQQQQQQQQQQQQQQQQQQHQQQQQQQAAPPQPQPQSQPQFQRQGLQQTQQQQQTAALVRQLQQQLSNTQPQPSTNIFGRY
# MED13 [3] = molecular target: T2, MED13; assay: cryo-EM structure
# [4] = molecular target: CDK8-Flag (recombinant CKM subunit) (human, UniProt P49336 1-464); assay: cryo-EM structure
# Chain of CDK8-Flag (recombinant CKM subunit) (P49336 whole entry): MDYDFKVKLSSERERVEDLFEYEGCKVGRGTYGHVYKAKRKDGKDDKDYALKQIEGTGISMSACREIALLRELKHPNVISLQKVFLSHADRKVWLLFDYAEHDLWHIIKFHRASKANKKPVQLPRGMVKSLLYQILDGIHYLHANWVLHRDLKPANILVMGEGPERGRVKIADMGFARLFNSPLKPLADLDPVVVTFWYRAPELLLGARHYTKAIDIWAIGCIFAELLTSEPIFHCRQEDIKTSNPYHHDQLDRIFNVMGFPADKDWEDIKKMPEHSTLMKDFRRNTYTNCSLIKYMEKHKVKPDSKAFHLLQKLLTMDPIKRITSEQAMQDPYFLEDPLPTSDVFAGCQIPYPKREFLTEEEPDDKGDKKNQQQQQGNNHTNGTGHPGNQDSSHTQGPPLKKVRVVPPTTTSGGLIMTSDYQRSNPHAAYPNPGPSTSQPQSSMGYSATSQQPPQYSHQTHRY
binding result [1],binding result (MED12),Binder,also measured
binds,,"MED8 (natural protein, human (endogenous in 293-F), UniProt Q96G25 1-268, looked up) MQREEKQLEASLDALLSQVADLKNSLGSFICKLENEYGRLTWPSVLDSFALLSGQLNTLNKVLKHEKTPLFRNQVIIPLVLSPDRDEDLMRQTEGRVPVFSHEVVPDHLRTKPDPEVEEQEKQLTTDAARIGADAAQKQIQSLNKMCSNLLEKISKEERESESGGLRPNKQTFNPTDTNALVAAVAFGKGLSNWRPSGSSGPGQAGQPGAGTILAGTSGLQQVQMAGAPSQQQPMLSGVQMAQAGQPGKMPSGIKTNIKSASMHPYQR",
,,B1,binding result (MED17): binds; binding result (MED14): binds
,binds,"MED10 (natural protein, human (endogenous in 293-F), UniProt Q9BTT4 1-135, looked up) MAEKFDHLEEHLEKFVENIRQLGIIVSDFQPSSQAGLNQKLNFIVTGLQDIDKCRQQLHDITVPLEVFEYIDQGRNPQLYTKECLERALAKNEQVKGKIDTMKKFKSLLIQELSKVFPEDMAKYRSIRGEDHPPS",binding result (MED13 [2]): binds; binding result (MED12L): binds
,binds,"MED19 (natural protein, human (endogenous in 293-F), UniProt A0JLT2 1-244, looked up) MENFTALFGAQADPPPPPTALGFGPGKPPPPPPPPAGGGPGTAPPPTAATAPPGADKSGAGCGPFYLMRELPGSTELTGSTNLITHYNLEQAYNKFCGKKVKEKLSNFLPDLPGMIDLPGSHDNSSLRSLIEKPPILSSSFNPITGTMLAGFRLHTGPLPEQCRLMHIQPPKKKNKHKHKQSRTQDPVPPETPSDSDHKKKKKKKEEDPDRKRKKKEKKKKKNRHSPDHPGMGSSQASSSSSLR",binding result (MED13 [3]): binds
binds,,"MED7 (natural protein, human (endogenous in 293-F), UniProt O43513 1-233, looked up) MGEPQQVSALPPPPMQYIKEYTDENIQEGLAPKPPPPIKDSYMMFGNQFQCDDLIIRPLESQGIERLHPMQFDHKKELRKLNMSILINFLDLLDILIRSPGSIKREEKLEDLKLLFVHVHHLINEYRPHQARETLRVMMEVQKRQRLETAERFQKHLERVIEMIQNCLASLPDDLPHSEAGMRVKTEPMDADDSNNCTGQNEHQRENSGHRRDQIIEKDAALCVLIDEMNERP",
binds,,"MED21 (natural protein, human (endogenous in 293-F), UniProt Q13503 1-144, looked up) MADRLTQLQDAVNSLADQFCNAIGVLQQCGPPASFNNIQTAINKDQPANPTEEYAQLFAALIARTAKDIDVLIDSLPSEESTAALQAASLYKLEEENHEAATCLEDVVYRGDMLLEKIQSALADIAQSQLKTRSGTHSQSLPDS",
,,"MED31 (natural protein, human (endogenous in 293-F), UniProt Q9Y3C7 1-131, looked up) MAAAVAMETDDAGNRLRFQLELEFVQCLANPNYLNFLAQRGYFKDKAFVNYLKYLLYWKDPEYAKYLKYPQCLHMLELLQYEHFRKELVNAQCAKFIDEQQILHWQHYSRKRMRLQQALAEQQQQNNTSGK",binding result (MED13 [2]): binds
,,"CCNC-6xHis (recombinant CKM subunit) (natural protein, human) MAGNFWQSSHYLQWILDKQDLLKERQKDLKFLSEEEYWKLQIFFTNVIQALGEHLKLRQQVIATATVYFKRFYARYSLKSIDPVLMAPTCVFLASKVEEFGVVSNTRLIAAATSVLKTRFSYAFPKEFPYRMNHILECEFYLLELMDCCLIVYHPYRPLLQYVQDMGQEDMLLPLAWRIVNDTYRTDLCLLYPPFMIALACLHVACVVQQKDARQWFAELSVDMEKILEIIRVILKLYEQWKNFDERKEMATILSKMPKPKPPPNSEGEQGPNGSQNSSYSQS",binding result [4]: binds
,binds,"CCNC (natural protein, human (endogenous in 293-F), UniProt P24863 1-283, looked up) MAGNFWQSSHYLQWILDKQDLLKERQKDLKFLSEEEYWKLQIFFTNVIQALGEHLKLRQQVIATATVYFKRFYARYSLKSIDPVLMAPTCVFLASKVEEFGVVSNTRLIAAATSVLKTRFSYAFPKEFPYRMNHILECEFYLLELMDCCLIVYHPYRPLLQYVQDMGQEDMLLPLAWRIVNDTYRTDLCLLYPPFMIALACLHVACVVQQKDARQWFAELSVDMEKILEIIRVILKLYEQWKNFDERKEMATILSKMPKPKPPPNSEGEQGPNGSQNSSYSQS",
binds,,"MED6 (natural protein, human (endogenous in 293-F), UniProt O75586 1-246, looked up) MAAVDIRDNLLGISWVDSSWIPILNSGSVLDYFSERSNPFYDRTCNNEVVKMQRLTLEHLNQMVGIEYILLHAQEPILFIIRKQQRQSPAQVIPLADYYIIAGVIYQAPDLGSVINSRVLTAVHGIQSAFDEAMSYCRYHPSKGYWWHFKDHEEQDKVRPKAKRKEEPSSIFQRQRVDALLLDLRQKFPPKFVQLKPGEKPVPVDQTKKEAEPIPETVKPEEKETTKNVQQTVSAKGPPEKRMRLQ",
